Test results taken from PMC8408612.

What was measured:
Assay in all cases: co-IP
[1] = biological target: endogenous dynein intermediate chain (DIC) of COS7 cells (African green monkey (endogenous in COS7))
Flag-CRMP4 = Flag-CRMP4 (UniProt Q14195)
[2] = biological target: endogenous mouse dynein intermediate chain (DIC) (mouse (endogenous in sciatic nerve and primary motor neurons)) (UniProt O88485)
UniProt O88485, sequence (O88485 whole entry): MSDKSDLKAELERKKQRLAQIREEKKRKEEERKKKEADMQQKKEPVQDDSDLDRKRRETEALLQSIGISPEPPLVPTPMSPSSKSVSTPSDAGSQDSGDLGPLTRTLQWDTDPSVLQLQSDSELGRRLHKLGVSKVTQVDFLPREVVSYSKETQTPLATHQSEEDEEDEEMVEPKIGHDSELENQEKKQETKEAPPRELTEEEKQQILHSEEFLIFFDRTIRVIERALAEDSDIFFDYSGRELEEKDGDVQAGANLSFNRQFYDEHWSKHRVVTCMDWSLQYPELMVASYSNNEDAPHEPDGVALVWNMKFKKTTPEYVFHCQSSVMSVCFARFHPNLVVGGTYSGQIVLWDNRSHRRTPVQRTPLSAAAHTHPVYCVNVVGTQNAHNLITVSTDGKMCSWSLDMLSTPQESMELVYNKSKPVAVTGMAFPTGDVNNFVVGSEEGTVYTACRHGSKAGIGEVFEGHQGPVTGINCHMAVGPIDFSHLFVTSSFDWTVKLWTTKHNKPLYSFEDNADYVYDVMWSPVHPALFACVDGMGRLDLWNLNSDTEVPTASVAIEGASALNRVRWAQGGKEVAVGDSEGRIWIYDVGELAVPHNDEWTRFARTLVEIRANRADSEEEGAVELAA

Flag-CRMP4, sequence (Q14195 whole entry): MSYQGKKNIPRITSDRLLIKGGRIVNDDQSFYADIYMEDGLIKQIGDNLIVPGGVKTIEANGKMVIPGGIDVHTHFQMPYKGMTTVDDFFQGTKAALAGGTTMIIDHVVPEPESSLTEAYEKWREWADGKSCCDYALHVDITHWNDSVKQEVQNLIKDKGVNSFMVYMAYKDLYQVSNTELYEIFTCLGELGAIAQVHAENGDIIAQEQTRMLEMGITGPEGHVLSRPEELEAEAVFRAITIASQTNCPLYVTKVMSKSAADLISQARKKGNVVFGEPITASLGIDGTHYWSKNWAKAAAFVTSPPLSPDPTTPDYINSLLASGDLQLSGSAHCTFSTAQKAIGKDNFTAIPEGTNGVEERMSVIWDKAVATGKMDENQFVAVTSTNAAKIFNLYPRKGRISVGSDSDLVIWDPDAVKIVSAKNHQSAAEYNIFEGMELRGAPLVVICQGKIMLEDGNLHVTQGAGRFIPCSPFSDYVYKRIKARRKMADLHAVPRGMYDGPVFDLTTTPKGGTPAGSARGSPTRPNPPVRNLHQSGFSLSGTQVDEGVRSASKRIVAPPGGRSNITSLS

CRMP4 (transfected together with AAV9-GFP or AAV9-GFP-50aa, Figure 4H) (from UniProt Q14195 1-570) (natural protein)
CRMP4 band normalised to DIC band (mean), cells with GFP-50aa [1]: 0.54 | CRMP4 band normalised to DIC band (mean), control cells with GFP [1]: 1

Flag-CRMP4 (from UniProt Q14195 1-570) (natural protein)
CRMP4 band normalised to DIC band (mean) [1]: 1

dynactin (p150), endogenous in COS7 cells (natural protein)
dynactin band normalised to Flag-CRMP4 band (mean), no peptide (Fig 4E) (Flag-CRMP4): 0.77 | dynactin band normalised to Flag-CRMP4 band (mean), no peptide (Fig 4G) (Flag-CRMP4): 1.92 | dynactin band normalised to Flag-CRMP4 band (mean), with peptide-1 (Flag-CRMP4): 1.44 | dynactin band normalised to Flag-CRMP4 band (mean), with peptide-2 (Flag-CRMP4): 1.34 | dynactin band normalised to Flag-CRMP4 band (mean), with peptide-3 (Flag-CRMP4): 1.8 | dynactin band normalised to Flag-CRMP4 band (mean), with peptide-4 (Flag-CRMP4): 1.13 | dynactin band normalised to Flag-CRMP4 band (mean), with peptides 1-4 (Fig 4E) (Flag-CRMP4): 0.17

endogenous mouse CRMP4 (from UniProt Q62188 1-570) (natural protein)
CRMP4 band normalised to DIC band (mean), SOD1G93A sciatic nerve [2]: 1.48 | CRMP4 band normalised to DIC band (mean), WT sciatic nerve [2]: 0.28

full-length GFP-CRMP4 (from UniProt Q14195 1-570) (natural protein)
CRMP4 band co-precipitated with DIC (densitometry, mean) [1]: 1.47

mutated Flag-CRMP4-I141V (from UniProt Q14195 1-570) (natural protein)
CRMP4 band normalised to DIC band (mean) [1]: 1.62
